The supplement of paper PMC9732359
± gives the uncertainty stated by the source.

Assay: protein stability index of a GFP-peptide fusion (yeast GPS) (PSI 1-4); higher = more stable; sorted into four equal gates, so the index is relative within each strain
Method in brief: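 The protein stability index combines read frequencies across sorting gates, each weighted by its gate number and then summed. To obtain those frequencies, a pooled yeast library of GFP fusions to tiled 17-residue yeast protein peptides, on a plasmid also expressing Cherry, was grown to mid-log phase in leucine-free medium. The cells were sorted into four equal gates by GFP/Cherry ratio before plasmid amplification by PCR and Illumina sequencing.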

## NHLDELQKKFVTKQSEL [SMC1]
doa10∆
  protein stability index: 2.59 ± 0.11
pdr5∆
  protein stability index: 3.06 ± 0.14
san1∆
  protein stability index: 2.35 ± 0.21
ubr1∆
  protein stability index: 2.72 ± 0.075

## LAFDKLNVPVFQIVIEP [ARP7]
doa10∆
  protein stability index: 2.12 ± 0.058
pdr5∆
  protein stability index: 2.23 ± 0.061
san1∆
  protein stability index: 1.8 ± 0.079
ubr1∆
  protein stability index: 1.7 ± 0.056

## SIREQVHMYHKSLALLG [SNF5]
doa10∆
  protein stability index: 1.81 ± 0.041
pdr5∆
  protein stability index: 1.74 ± 0.041
san1∆
  protein stability index: 2.37 ± 0.095
ubr1∆
  protein stability index: 2.06 ± 0.045

## RILQQLKLDKIIHVLTT [RGR1]
doa10∆
  protein stability index: 1.64 ± 0.068
pdr5∆
  protein stability index: 1.21 ± 0.053
san1∆
  protein stability index: 1.72 ± 0.15
ubr1∆
  protein stability index: 2.22 ± 0.073

## DEDEDNDLDEDDIYDIS [RPN4]
pdr5∆
  protein stability index: 3.46 ± 0.2
san1∆
  protein stability index: 3.56 ± 0.11
ubr1∆
  protein stability index: 3.33 ± 0.15

## SKKNRPTLQVGDLVYAR [RRP40]
doa10∆
  protein stability index: 2.36 ± 0.1
pdr5∆
  protein stability index: 2.48 ± 0.09
san1∆
  protein stability index: 1.87 ± 0.12
ubr1∆
  protein stability index: 2.46 ± 0.043

## LLTNFHGMDFTTDKLRS [RPS1A]
doa10∆
  protein stability index: 2.52 ± 0.1
pdr5∆
  protein stability index: 3.02 ± 0.084
san1∆
  protein stability index: 2.84 ± 0.097
ubr1∆
  protein stability index: 2.81 ± 0.077

## ESENFKIIALQPNEISF [RGR1]
doa10∆
  protein stability index: 2.39 ± 0.091
pdr5∆
  protein stability index: 2.55 ± 0.11
san1∆
  protein stability index: 2.54 ± 0.084
ubr1∆
  protein stability index: 2.49 ± 0.075

## PRTLIGHRATVTDIAII [RPN14]
doa10∆
  protein stability index: 3.24 ± 0.18
pdr5∆
  protein stability index: 3.54 ± 0.2
san1∆
  protein stability index: 3.29 ± 0.1
ubr1∆
  protein stability index: 3.18 ± 0.094

## AEKKVVRLTSRQRGRIA [RPL17A]
doa10∆
  protein stability index: 2.88 ± 0.18
pdr5∆
  protein stability index: 1.28 ± 0.074
san1∆
  protein stability index: 1.45 ± 0.19
ubr1∆
  protein stability index: 1.14 ± 0.093

## EKKLMQDNKQLYQIWIV [YDL116W/NUP84]
doa10∆
  protein stability index: 2.06 ± 0.075
pdr5∆
  protein stability index: 1.83 ± 0.078
san1∆
  protein stability index: 2.72 ± 0.15
ubr1∆
  protein stability index: 1.44 ± 0.072

## FNTNFDDEFGDLDAVFF [SNF6]
doa10∆
  protein stability index: 3 ± 0.076
pdr5∆
  protein stability index: 2.96 ± 0.059
san1∆
  protein stability index: 2.77 ± 0.054
ubr1∆
  protein stability index: 3.01 ± 0.035

## YITARIMAKRPFDKKSN [FAS1]
doa10∆
  protein stability index: 2.74 ± 0.094
pdr5∆
  protein stability index: 2.79 ± 0.078
san1∆
  protein stability index: 1.96 ± 0.12
ubr1∆
  protein stability index: 2.86 ± 0.081

## PLIWQLLQSSIINKLIH [POP3]
doa10∆
  protein stability index: 2 ± 0.059
pdr5∆
  protein stability index: 2.38 ± 0.062
san1∆
  protein stability index: 2.01 ± 0.096
ubr1∆
  protein stability index: 1.84 ± 0.028

## SASPHLAPNMQLNGNET [SNF2]
doa10∆
  protein stability index: 3.23 ± 0.041
pdr5∆
  protein stability index: 2.96 ± 0.043
san1∆
  protein stability index: 3.1 ± 0.025
ubr1∆
  protein stability index: 3.256 ± 0.032

## EVNSKKKNKRALPNIEN [BRR2]
doa10∆
  protein stability index: 2.9 ± 0.14
pdr5∆
  protein stability index: 3.2 ± 0.096
san1∆
  protein stability index: 3.35 ± 0.088
ubr1∆
  protein stability index: 3.09 ± 0.068

## NKLGNKRLTEDERIEKE [CDC53]
doa10∆
  protein stability index: 2.38 ± 0.15
pdr5∆
  protein stability index: 3.13 ± 0.095
san1∆
  protein stability index: 2.31 ± 0.059
ubr1∆
  protein stability index: 2.42 ± 0.11

## MGVRTFSQKEMAFNLLG [FAS2]
doa10∆
  protein stability index: 2.1 ± 0.078
pdr5∆
  protein stability index: 1.9 ± 0.057
san1∆
  protein stability index: 2.15 ± 0.083
ubr1∆
  protein stability index: 2.21 ± 0.046

## IRNVLVTVDQYVNVAIS [SSN2]
doa10∆
  protein stability index: 1.21 ± 0.044
pdr5∆
  protein stability index: 1.25 ± 0.058
san1∆
  protein stability index: 1.29 ± 0.089
ubr1∆
  protein stability index: 1.39 ± 0.058

## KNNLLIPDLSIQNDIYL [RPN12]
doa10∆
  protein stability index: 2.93 ± 0.046
pdr5∆
  protein stability index: 3.02 ± 0.038
san1∆
  protein stability index: 2.98 ± 0.035
ubr1∆
  protein stability index: 2.92 ± 0.047

## NGKVQYFLRRQYILQIV [YJL039C/NUP192]
doa10∆
  protein stability index: 1.42 ± 0.054
pdr5∆
  protein stability index: 1.56 ± 0.07
san1∆
  protein stability index: 1.33 ± 0.18
ubr1∆
  protein stability index: 1.45 ± 0.053

## VQLKDANSQIQAYEEII [YIL149C/MLP2]
doa10∆
  protein stability index: 2.69 ± 0.12
pdr5∆
  protein stability index: 3.5 ± 0.17
san1∆
  protein stability index: 3.37 ± 0.23
ubr1∆
  protein stability index: 3.45 ± 0.12

## VKCEELSNTLACYRTIM [RRP40]
doa10∆
  protein stability index: 2.24 ± 0.069
pdr5∆
  protein stability index: 2.49 ± 0.093
san1∆
  protein stability index: 2.01 ± 0.087
ubr1∆
  protein stability index: 2.57 ± 0.075

## DTSDIIVDPTAEQLKIS [RRP46]
doa10∆
  protein stability index: 1.79 ± 0.091
pdr5∆
  protein stability index: 2.19 ± 0.097
san1∆
  protein stability index: 2.73 ± 0.14
ubr1∆
  protein stability index: 2.12 ± 0.092

## NANAGLFNKPPSTNAQN [YOR098C/NUP1]
doa10∆
  protein stability index: 3.1 ± 0.046
pdr5∆
  protein stability index: 3.17 ± 0.046
san1∆
  protein stability index: 3.06 ± 0.038
ubr1∆
  protein stability index: 3.16 ± 0.034

## LVYQYKGAGLSMGTMIC [PRE2]
doa10∆
  protein stability index: 2.06 ± 0.083
pdr5∆
  protein stability index: 2.3 ± 0.097
san1∆
  protein stability index: 2.18 ± 0.16
ubr1∆
  protein stability index: 2.24 ± 0.11

## DPNIKVNDTVKIDLASG [RPS4A]
doa10∆
  protein stability index: 2.81 ± 0.079
pdr5∆
  protein stability index: 2.75 ± 0.063
san1∆
  protein stability index: 2.73 ± 0.087
ubr1∆
  protein stability index: 2.41 ± 0.053

## KTCQWYSEHLKPYDINV [DIS3]
doa10∆
  protein stability index: 2.78 ± 0.28
pdr5∆
  protein stability index: 2.95 ± 0.14
san1∆
  protein stability index: 2.74 ± 0.094
ubr1∆
  protein stability index: 2.84 ± 0.072

## DVKLLNPIDIKRRFGEL [RPP1]
doa10∆
  protein stability index: 2.46 ± 0.089
pdr5∆
  protein stability index: 2.7 ± 0.078
san1∆
  protein stability index: 2.38 ± 0.14
ubr1∆
  protein stability index: 2.97 ± 0.047

## TKENGDFTLPEDFAPLL [PRP8]
pdr5∆
  protein stability index: 2.78 ± 0.18
ubr1∆
  protein stability index: 3.2 ± 0.1

## GSGQPDNDTVVTNDDKS [SRB8]
doa10∆
  protein stability index: 3.08 ± 0.23
pdr5∆
  protein stability index: 3.29 ± 0.17
san1∆
  protein stability index: 2.52 ± 0.15

## VWGSETVASSKVGYTLP [RPL4A]
doa10∆
  protein stability index: 3.03 ± 0.059
pdr5∆
  protein stability index: 3.15 ± 0.049
san1∆
  protein stability index: 3.14 ± 0.034
ubr1∆
  protein stability index: 3.156 ± 0.031

## FREAIVATEPLLDILVK [PRP8]
doa10∆
  protein stability index: 1.86 ± 0.047
pdr5∆
  protein stability index: 2.16 ± 0.043
san1∆
  protein stability index: 1.96 ± 0.1
ubr1∆
  protein stability index: 1.54 ± 0.031

## EYALEAVKRGTCAVGVK [PRE6]
doa10∆
  protein stability index: 1.93 ± 0.08
pdr5∆
  protein stability index: 2.53 ± 0.094
san1∆
  protein stability index: 2.21 ± 0.13
ubr1∆
  protein stability index: 2.92 ± 0.084

## NVMLNIYPRTVIDIEIH [SKI6]
doa10∆
  protein stability index: 1.35 ± 0.039
pdr5∆
  protein stability index: 1.74 ± 0.046
san1∆
  protein stability index: 1.58 ± 0.11
ubr1∆
  protein stability index: 1.76 ± 0.034

## KPGSTVMLLGTPDANLI [UBP6]
pdr5∆
  protein stability index: 3.58 ± 0.24
ubr1∆
  protein stability index: 3.38 ± 0.12

## GDYDSHDISRYVRAKFL [PRP8]
doa10∆
  protein stability index: 2.08 ± 0.077
pdr5∆
  protein stability index: 2.11 ± 0.086
san1∆
  protein stability index: 1.66 ± 0.16
ubr1∆
  protein stability index: 1.43 ± 0.055

## DNSFNELTDNMSDFVPI [MCD1]
doa10∆
  protein stability index: 2.95 ± 0.082
pdr5∆
  protein stability index: 3 ± 0.089
san1∆
  protein stability index: 2.92 ± 0.052
ubr1∆
  protein stability index: 3.23 ± 0.064

## SIDPPGCVDIDDALHAK [DIS3]
doa10∆
  protein stability index: 3.12 ± 0.085
pdr5∆
  protein stability index: 3.19 ± 0.072
san1∆
  protein stability index: 3.25 ± 0.071
ubr1∆
  protein stability index: 3.31 ± 0.06

## PKKHLSETADETLENNI [RPN11]
doa10∆
  protein stability index: 3.15 ± 0.1
pdr5∆
  protein stability index: 3.13 ± 0.098
san1∆
  protein stability index: 3.17 ± 0.077
ubr1∆
  protein stability index: 2.84 ± 0.088

## VLILLHAERDLALAETL [SRP68]
doa10∆
  protein stability index: 2.3 ± 0.06
pdr5∆
  protein stability index: 3.04 ± 0.089
san1∆
  protein stability index: 2.96 ± 0.058
ubr1∆
  protein stability index: 3.11 ± 0.057

## NLTAGIIVAGYDDKNKG [PRE3]
doa10∆
  protein stability index: 2 ± 0.071
pdr5∆
  protein stability index: 2.75 ± 0.096
san1∆
  protein stability index: 2.53 ± 0.12
ubr1∆
  protein stability index: 2.16 ± 0.077

## NRTFTDPPFRIEEQGWG [TAF14]
doa10∆
  protein stability index: 3.11 ± 0.067
pdr5∆
  protein stability index: 3.24 ± 0.057
san1∆
  protein stability index: 3.11 ± 0.1
ubr1∆
  protein stability index: 3.07 ± 0.054

## EIEPILMEIHNILKVDS [RGR1]
doa10∆
  protein stability index: 1.74 ± 0.098
pdr5∆
  protein stability index: 1.84 ± 0.1
san1∆
  protein stability index: 1.98 ± 0.15
ubr1∆
  protein stability index: 1.76 ± 0.065

## VSKKVDVRRLKKNVWRS [BRN1]
doa10∆
  protein stability index: 2.54 ± 0.22
pdr5∆
  protein stability index: 1.33 ± 0.13
ubr1∆
  protein stability index: 3.13 ± 0.13

## EEQDVDMTGDEEQEEEP [RPC19]
ubr1∆
  protein stability index: 2.76 ± 0.28

## MSLRHFGHLMHYGNEHI [RPN1]
doa10∆
  protein stability index: 1.47 ± 0.04
pdr5∆
  protein stability index: 1.38 ± 0.039
san1∆
  protein stability index: 1.4 ± 0.066
ubr1∆
  protein stability index: 1.33 ± 0.032

## SARSSVHESLVTQSNIL [SRB8]
doa10∆
  protein stability index: 2.77 ± 0.078
pdr5∆
  protein stability index: 3.04 ± 0.076
san1∆
  protein stability index: 2.81 ± 0.061
ubr1∆
  protein stability index: 2.83 ± 0.086

## ENSGKEMDEKSYEKNED [LIN1]
doa10∆
  protein stability index: 3.64 ± 0.28
pdr5∆
  protein stability index: 3.29 ± 0.12
san1∆
  protein stability index: 3.33 ± 0.14
ubr1∆
  protein stability index: 3.16 ± 0.11

## KHSVTEYIFEAHEIIKR [CDC53]
doa10∆
  protein stability index: 2.32 ± 0.067
pdr5∆
  protein stability index: 1.87 ± 0.049
san1∆
  protein stability index: 2.68 ± 0.075
ubr1∆
  protein stability index: 2.58 ± 0.051

## VKDLGQGLKLAKKHKLN [SMC3]
doa10∆
  protein stability index: 3.12 ± 0.11
pdr5∆
  protein stability index: 2.92 ± 0.13
san1∆
  protein stability index: 2.83 ± 0.097
ubr1∆
  protein stability index: 2.81 ± 0.068
